What was measured:
[1] = test system: HeLa Kyoto; experiment: solubility in G1/S (NP-40 vs SDS abundance) (log2 ratio); higher = more soluble; settings: cell cycle stage: G1/S
[2] = test system: HeLa Kyoto; experiment: melting temperature (median over replicates), in situ; higher = more thermally stable
[3] = test system: HeLa Kyoto; experiment: solubility change mitosis vs G1/S (difference of NP-40 vs SDS log2 ratios) (log2 ratio difference); higher = more soluble in mitosis
[4] = test system: HeLa Kyoto; experiment: thermal stability score vs G1/S (z-score of summed log2 fold changes over temperatures); higher = more thermally stable than in G1/S
[5] = cell cycle stage: early G1 (4.5 h after nocodazole release)
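Throughout, for melting temperature (median over replicates), in situ: HeLa Kyoto cells synchronized by double thymidine or nocodazole block, proteins quantified by TMT10plex mass spectrometry, three independent biological replicates.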
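Throughout, for solubility change mitosis vs G1/S (difference of NP-40 vs SDS log2 ratios): synchronized HeLa Kyoto cells (double thymidine block for G1/S, nocodazole release for mitosis), protein amounts in NP-40 versus SDS lysates quantified by mass spectrometry, three biological replicates.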
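Throughout, for solubility in G1/S (NP-40 vs SDS abundance): HeLa Kyoto cells arrested at G1/S by double thymidine block, proteins quantified by TMT10plex mass spectrometry in mild NP-40 versus SDS extracts, three biological replicates.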
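Throughout, for thermal stability score vs G1/S (z-score of summed log2 fold changes over temperatures): synchronized HeLa Kyoto cells, proteins quantified by TMT10plex mass spectrometry, three biological replicates, mitosis taken 0.5 h after nocodazole release, G1/S directly after double thymidine block.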

Sequence | solubility in G1/S (log2) [1] | melting temperature ([2]; cell cycle stage: G1/S) | melting temperature ([2]; cell cycle stage: mitosis) | solubility change mitosis (log2) [3] | thermal stability score [4, 5] | thermal stability score ([4]; cell cycle stage: mitosis)
MSLSHLYRDGEGRIDDDDDERENFEITDWDLQNEFNPNRQRHWQTKEEATYGVWAERDSDDERPSFGGKRARDYSAPVNFISAGLKKGAAEEAELEDSDDEEKPVKQDDFPKDFGPRKLKTGGNFKPSQKGFAGGTKSFMDFGSWERHTKGIGQKLLQKMGYVPGRGLGKNAQGIINPIEAKQRKGKGAVGAYGSERTTQSMQDFPVVDSEEEAEEEFQKELSQWRKDPSGSKKKPKYSYKTVEELKAKGRISKKLTAPQKELSQVKVIDMTGREQKVYYSYSQISHKHNVPDDGLPLQSQQLPQSGKEAKAPGFALPELEHNLQLLIDLTEQEIIQNDRQLQYERDMVVNLFHELEKMTEVLDHEERVISNLSKVLEMVEECERRMQPDCSNPLTLDECARIFETLQDKYYEEYRMSDRVDLAVAIVYPLMKEYFKEWDPLKDCTYGTEIISKWKSLLENDQLLSHGGQDLSADAFHRLIWEVWMPFVRNIVTQWQPRNCDPMVDFLDSWVHIIPVWILDNILDQLIFPKLQKEVENWNPLTDTVPIHSWIHPWLPLMQARLEPLYSPIRSKLSSALQKWHPSDSSAKLILQPWKDVFTPGSWEAFMVKNIVPKLGMCLGELVINPHQQHMDAFYWVIDWEGMISVSSLVGLLEKHFFPKWLQVLCSWLSNSPNYEEITKWYLGWKSMFSDQVLAHPSVKDKFNEALDIMNRAVSSNVGAYMQPGARENIAYLTHTERRKDFQYEAMQERREAENMAQRGIGVAASSVPMNFKDLIETKAEEHNIVFMPVIGKRHEGKQLYTFGRIVIYIDRGVVFVQGEKTWVPTSLQSLIDMAK [TFIP11] | -0.472 | 48.4 °C | 48.9 °C | 0.115 | 0.21 | 1.2
MSLSNKLTLDKLDVKGKRVVMRVDFNVPMKNNQITNNQRIKAAVPSIKFCLDNGAKSVVLMSHLGRPDGVPMPDKYSLEPVAVELKSLLGKDVLFLKDCVGPEVEKACANPAAGSVILLENLRFHVEEEGKGKDASGNKVKAEPAKIEAFRASLSKLGDVYVNDAFGTAHRAHSSMVGVNLPQKAGGFLMKKELNYFAKALESPERPFLAILGGAKVADKIQLINNMLDKVNEMIIGGGMAFTFLKVLNNMEIGTSLFDEEGAKIVKDLMSKAEKNGVKITLPVDFVTADKFDENAKTGQATVASGIPAGWMGLDCGPESSKKYAEAVTRAKQIVWNGPVGVFEWEAFARGTKALMDEVVKATSRGCITIIGGGDTATCCAKWNTEDKVSHVSTGGGASLELLEGKVLPGVDALSNI [PGK1] | 0.376 | 53.8 °C | 53.9 °C | -0.0583 | 1.07 | 0.993
MSLTSSSSVRVEWIAAVTIAAGTAAIGYLAYKRFYVKDHRNKAMINLHIQKDNPKIVHAFDMEDLGDKAVYCRCWRSKKFPFCDGAHTKHNEETGDNVGPLIIKKKET [CISD1] | 0.633 | 57.1 °C | 55.3 °C | 0.0262 | -0.277 | -1.59
MSLVAYASSDESEPDEAEPEPEEEEAVAPTSGPALGGLFASLPAPKGPALLPPPPQMLAPAFPPPLLLPPPTGDPRLQPPPPLPFGLGGFPPPPGVSPAEAAGVGEGLGLGLPSPRGPGLNLPPPIGGAGPPLGLPKPKKRKEPVKIAAPELHKGDSDSEEDEPTKKKTILQGSSEGTGLSALLPQPKNLTVKETNRLLLPHAFSRKPSDGSPDTKPSRLASKTKTSSLAPVVGTTTTTPSPSAIKAAAKSAALQVTKQITQEEDDSDEEVAPENFFSLPEKAEPPGVEPYPYPIPTVPEELPPGTEPEPAFQDDAANAPLEFKMAAGSSGAPWMPKPGDDYSYNQFSTYGDANAAGAYYQDYYSGGYYPAQDPALVPPQEIAPDASFIDDEAFKRLQGKRNRGREEINFVEIKGDDQLSGAQQWMTKSLTEEKTMKSFSKKKGEQPTGQQRRKHQITYLIHQAKERELELKNTWSENKLSRRQTQAKYGF [PRCC] | 0.46 | 53.2 °C | 53.8 °C | -0.00665 | -2.8 | -0.438
MSMEDYDFLFKIVLIGNAGVGKTCLVRRFTQGLFPPGQGATIGVDFMIKTVEINGEKVKLQIWDTAGQERFRSITQSYYRSANALILTYDITCEESFRCLPEWLREIEQYASNKVITVLVGNKIDLAERREVSQQRAEEFSEAQDMYYLETSAKESDNVEKLFLDLACRLISEARQNTLVNNVSSPLPGEGKSISYLTCCNFN [RAB30] | -0.379 | 51.3 °C | 51.7 °C | -0.0812 | 0.727 | 1.4
MSMLKPSGLKAPTKILKPGSTALKTPTAVVAPVEKTISSEKASSTPSSETQEEFVDDFRVGERVWVNGNKPGFIQFLGETQFAPGQWAGIVLDEPIGKNDGSVAGVRYFQCEPLKGIFTRPSKLTRKVQAEDEANGLQTTPASRATSPLCTSTASMVSSSPSTPSNIPQKPSQPAAKEPSATPPISNLTKTASESISNLSEAGSIKKGERELKIGDRVLVGGTKAGVVRFLGETDFAKGEWCGVELDEPLGKNDGAVAGTRYFQCQPKYGLFAPVHKVTKIGFPSTTPAKAKANAVRRVMATTSASLKRSPSASSLSSMSSVASSVSSRPSRTGLLTETSSRYARKISGTTALQEALKEKQQHIEQLLAERDLERAEVAKATSHVGEIEQELALARDGHDQHVLELEAKMDQLRTMVEAADREKVELLNQLEEEKRKVEDLQFRVEEESITKGDLEQKSQISEDPENTQTKLEHARIKELEQSLLFEKTKADKLQRELEDTRVATVSEKSRIMELEKDLALRVQEVAELRRRLESNKPAGDVDMSLSLLQEISSLQEKLEVTRTDHQREITSLKEHFGAREETHQKEIKALYTATEKLSKENESLKSKLEHANKENSDVIALWKSKLETAIASHQQAMEELKVSFSKGLGTETAEFAELKTQIEKMRLDYQHEIENLQNQQDSERAAHAKEMEALRAKLMKVIKEKENSLEAIRSKLDKAEDQHLVEMEDTLNKLQEAEIKVKELEVLQAKCNEQTKVIDNFTSQLKATEEKLLDLDALRKASSEGKSEMKKLRQQLEAAEKQIKHLEIEKNAESSKASSITRELQGRELKLTNLQENLSEVSQVKETLEKELQILKEKFAEASEEAVSVQRSMQETVNKLHQKEEQFNMLSSDLEKLRENLADMEAKFREKDEREEQLIKAKEKLENDIAEIMKMSGDNSSQLTKMNDELRLKERDVEELQLKLTKANENASFLQKSIEDMTVKAEQSQQEAAKKHEEEKKELERKLSDLEKKMETSHNQCQELKARYERATSETKTKHEEILQNLQKTLLDTEDKLKGAREENSGLLQELEELRKQADKAKAAQTAEDAMQIMEQMTKEKTETLASLEDTKQTNAKLQNELDTLKENNLKNVEELNKSKELLTVENQKMEEFRKEIETLKQAAAQKSQQLSALQEENVKLAEELGRSRDEVTSHQKLEEERSVLNNQLLEMKKRESKFIKDADEEKASLQKSISITSALLTEKDAELEKLRNEVTVLRGENASAKSLHSVVQTLESDKVKLELKVKNLELQLKENKRQLSSSSGNTDTQADEDERAQESQIDFLNSVIVDLQRKNQDLKMKVEMMSEAALNGNGDDLNNYDSDDQEKQSKKKPRLFCDICDCFDLHDTEDCPTQAQMSEDPPHSTHHGSRGEERPYCEICEMFGHWATNCNDDETF [CLIP1] | 0.37 | 54.7 °C | 54.2 °C | -0.0152 | -1.53 | -1.75
MSNAKERKHAKKMRNQPTNVTLSSGFVADRGVKHHSGGEKPFQAQKQEPHPGTSRQRQTRVNPHSLPDPEVNEQSSSKGMFRKKGGWKAGPEGTSQEIPKYITASTFAQARAAEISAMLKAVTQKSSNSLVFQTLPRHMRRRAMSHNVKRLPRRLQEIAQKEAEKAVHQKKEHSKNKCHKARRCHMNRTLEFNRRQKKNIWLETHIWHAKRFHMVKKWGYCLGERPTVKSHRACYRAMTNRCLLQDLSYYCCLELKGKEEEILKALSGMCNIDTGLTFAAVHCLSGKRQGSLVLYRVNKYPREMLGPVTFIWKSQRTPGDPSESRQLWIWLHPTLKQDILEEIKAACQCVEPIKSAVCIADPLPTPSQEKSQTELPDEKIGKKRKRKDDGENAKPIKKIIGDGTRDPCLPYSWISPTTGIIISDLTMEMNRFRLIGPLSHSILTEAIKAASVHTVGEDTEETPHRWWIETCKKPDSVSLHCRQEAIFELLGGITSPAEIPAGTILGLTVGDPRINLPQKKSKALPNPEKCQDNEKVRQLLLEGVPVECTHSFIWNQDICKSVTENKISDQDLNRMRSELLVPGSQLILGPHESKIPILLIQQPGKVTGEDRLGWGSGWDVLLPKGWGMAFWIPFIYRGVRVGGLKESAVHSQYKRSPNVPGDFPDCPAGMLFAEEQAKNLLEKYKRRPPAKRPNYVKLGTLAPFCCPWEQLTQDWESRVQAYEEPSVASSPNGKESDLRRSEVPCAPMPKKTHQPSDEVGTSIEHPREAEEVMDAGCQESAGPERITDQEASENHVAATGSHLCVLRSRKLLKQLSAWCGPSSEDSRGGRRAPGRGQQGLTREACLSILGHFPRALVWVSLSLLSKGSPEPHTMICVPAKEDFLQLHEDWHYCGPQESKHSDPFRSKILKQKEKKKREKRQKPGRASSDGPAGEEPVAGQEALTLGLWSGPLPRVTLHCSRTLLGFVTQGDFSMAVGCGEALGFVSLTGLLDMLSSQPAAQRGLVLLRPPASLQYRFARIAIEV [POP1] | -0.778 | 52.2 °C | 51.8 °C | 0.246 | 1.22 | -1.05
